# Patent publication US8097425
# Experiments:
# hybridoma 2.11 = assay: competition ELISA; signal of 2.11 on plate-bound Pep2-0 (competitor) with this free peptide; low = inhibited
# hybridoma 2.03 = assay: competition ELISA; signal of 2.03 on plate-bound Pep2-0 (competitor) with this free peptide; low = inhibited
binder,measurement,setting,value
Ac-HSLFHPEDTG-biotin [Pep1-1],Maximum Reactivity,hybridoma 2.11,1.48
same,Maximum Reactivity,hybridoma 2.03,0.382
Ac-SLFHPEDTGQ-biotin [Pep1-2],Maximum Reactivity,hybridoma 2.11,1.49
same,Maximum Reactivity,hybridoma 2.03,0.329
